Experiment: soluble on expression in E. coli; label from the status in PepcDB or PDB records

Sequence | soluble on expression in E. coli
MQEGLVVVESCPRLGWAMESPENGTRQTAYEIEIREAFTGRSVWNSGKVTSSQSQLVPTEGADICLNNPFNYSWRVRVWDETDTPSEWSQEAKFRLASDDLSSGKWIGAITRKDSHLPEGRKFHGGELKKPEVKAAWEAVDTLAKKSICLRRTFQTGEAKGKNANRKSGKKIVEATAYVCGLGFYEFSLNGKKIGDSEFAPLWSDYDKSVYYNTYDVTEQLQDGENVVGILLGNGFYNVQGGRYRKLQISFGPPTLLFELVINYEDGTRETIRSDHEWKYDLSPITFNCIYGGEDYDARREQKGWNQVGFNDSHWRPVVVQEAPKGVLRSQMAPPVKIMERYDIQKVTKLNSEQVMAASKSTKRTVDPSAVVLDMGQNLAGFPEITVRGKRGQKVTLIVAEALMDEGACNQRQTGRQHYYEYTLKGEGDEIWHPRFSYYGFRYIQVEGAVLKGQKNPQKLPVLKNIQSCFIYNSAKKVSTFESSNRIFNAAHRLIEKAVRSNMQSVFTDCPHREKLGWLEQVHLNGPGLLYNYDLTAYAPQIMQNMADAQHPNGAMPTTAPEYVVFEGPGMDAFAESPEWGGSLVIFPFMYYETYGDDSLIKKYYQHMRRYTDYLKTRADNGILSFGLGDWYDYGDFRAGFSRNTPVPLVATAHYYMTVMYLIKAARMVGNEFDVRYYSSLAYDIMVAFNKRFLDSNTAQYGTGSQASNALPIFLQMIQSTGDKGDYTPDASLAAKVLTNLIKDVESHGNRLTTGDVGNRYLIQTLARNGQHELIYKMFNHEEAPGYGFQLKFGATTLTEQWDPRQGSSWNHFMMGQIDEWFFNSLIGIRPSTTLSASVNEKDEPMQGYQKFVIAPKPVGDLKYVKSTYETLYGTILVDWTRQSGTFTLNVSVPVNTTAIVYLPGEKEPKEVQSGTYKFVAAE | not soluble
MSLTRPPALSDVPDAAALPAVTAVEAMHCRIPFPSPLQLGKVHMTHRDYVLVRLLLADGGTGHAIGFERGMPLLDLVTRVAPFYVGRSPAMRAAARRAAEAATPPARAVLMRGISLLDIAMWDALARNKGLPLWALLGGARRRVPVMPVVGYGASAPAVAEQCRDLAGRGFRTVKVMIDGSDLAADAALLDAVRKALPDEVAFGIDAHWSWTTIADAMPTCRRAEELGAIFIEDPFLPQQWRTIAELQTQLRVPLAVGEDVIDRYGFRDLAEAARILRVDASVSGGVTGAIEALHLATIMDREVIPHVFPALHGQLAAAFPAARCVEMILPEVGADPVDRLFAEEARIEGGDLLVSETPGAAIAFDWDKARDFALRSERVGEGHHHHHH | soluble
SNAPLLLGKKAPNLYMTDTTGTYRYLYDVQAKYTILFFWDSQCGHCQQETPKLYDWWLKNRAKGIQVYAANIERKDEEWLKFIRSKKIGGWLNVRDSKNHTDFKITYDIYATPVLYVLDKNKVIIAKRIGYENLDDFLVQYEKSLKTK | soluble
LVLQLQINRNPVLFDFNLQLKTNNFANQTSFDELFNEKTNPLNWQFFSKLKVNHLVYEGNDITQLANTLLQSQFNVLQLDLNKSIYRLNLNAMAQRFEHDWVQPLYAKRTQAKIAY | not soluble
MGSDKIHHHHHHMVKIKEGFKGERLVSLPEELLASYRREPLINNLYVRKIGFFPRVKYHFLQKEHGCDYAMLIYCTEGKGWYRILGKQYTVEKYQYIIIPPGIPYSFGADEGDPWTIYWLHFQGKLCDQFLPSHPVPVTISPNEYSRLQDRLRLFEEIYSSFSMGYIKEYMIYSSMCLYNFLASFIYLEQFRHIMIPSQKEYPFTARVIHYMRENIQQNLTLKELASYFKYSPSHFSALFFGETGVSPMNYFIRLKIQKACEYIELTNMKLNEIATHLGFEDAAYFSRTFTKVMGCSPSVYRKKEMEI | not soluble
MAAIKANEQDAVGMIVRKQSEFEENSHNFNNNGPSLSDMPIEVIHNIVDYVDPINILVIRKVCRKLRNVLDGDPKFKDVHLHQPTSLDMNFSLELDDSWVDYRTNGSGSGLGLFRNSISKTKTKIFVLKHENENENENGTNCTYGF | soluble
MTVFSGVNKIEFEGTFEGIGKDVVMSQMIRALQKHFPSIRDKNYEFSLFLHIFQRYVLENTSITHDLVCDKIRLPIIDEVVELDDIKNYGLLEGKLLSKLAILKLTGKANPIIGKESPLFEVKNGMSSLDVIVRQTQNLNVRYNSDVPLIFMTSLETESQVSNFLEEHYSSSKVRWKTVVQSSFPQIDKDRLLPIDLQINSHENDFWYPCGTGNLTDTLYFSGELDKLIAQGKEILFVSNVDNLGATGDLNILNFIINEKIEYLVEVVERTANVSNTGVLATYKGKLRSVYYNCLSNESASTCRIVNTNNIWIDLKKLKVLIESNSLNLPIHSSESKITHKNEEIECLQFKTQLVDCIAFFPNSRVLKVSRDRFLPLRTCKDLFLLKSTLYDLDSNGTFNLYPLKFGLLPSIDLGDEFATYETFKIGVPDIPNILELEHLTVMGNVFFGRNITLKGTVIIICDENDVITVPDGSILENVTIWHKSQLEDMNGY | not soluble
MAHHHHHHMAATKSAVSAAKRKAAKKVSRKSPEYTTLRKSCAPGAIAIILAGRFRGRRAVILKQLPHNGPLVVSGPMKYNGVPIRRIDSRYVIATSTTVDISSVDTAPITAEVFQRPKAEKPTKSEGDFMGDKQKAKAEKAAKKTSKAGKKTLVSDARAQLQKKIDAALIAAIKKDAQGKEKAGYLRSVFTVKPGDAPHRWNW | not soluble
MGHHHHHHSHMSVSVHENRKSRASSGSINIYLFHKSSYADSVLTHLNLLRQQRLFTDVLLHAGNRTFPCHRAVLAACSRYFEAMFSGGLKESQDSEVNFDNSIHPEVLELLLDYAYSSRVIINEENAESLLEAGDMLEFQDIRDACAEFLEKNLHP | not soluble
MAHHHHHHMSTSNEEDKWSAISAKKIAPKYRKGYYPNRDIMTPKKKTEKKELTYKNSKIAIGRTKSLRFRRDTVTFATKNINFQHRKKSILSKQKSMAEPKLKKQNTVALKRRKTMSRLNSMKKPPYTIVLNKKKVINMNKGMHPSENRKDKISGTTNTPLAARRMLARSKTKVLVDNETKIFKKENVKMVSSNPFNPIASSVESSRRNELENGKQKKELGTVGSANKRESAQHLSTNADKKKIYHNSVRNKLKSKKEEMFQNIISLTKNMKEKPLKKKYNDQIDPRDLLSVTSNNSSVAVDDDL | not soluble
MRLIPLGAAALAGALALAPAARAEMSAAEREAVRAEVRAYLLENPEVLMEAFTALEQRQQLDQVNADLARLQDHSSEIYTDPASWAGGNLQGDITVVEFIDYRCGYCRKANAEVEELVASDGNIRFVLKEYPILGEESVLASRFAISVLQIAGPEPYKAVHDKLITFRGDITTEALGRLADEMKLDRAAILAHMDKDEVTAVIAANHKLAETLEISGTPTFVVDRTMVRGYVPLDGMRQIVEGQRKG | not soluble
AIAGANEDQEMELEALRSIYEGDNSFRELSPVSFQYRIGEDGDPKAFLIEVSWTETYPQTAPVISMNAFFNNTISSAVKQSILAKLQEAVEVNLGTAMTYTLFEYAKDHKEQFMENHHPGNSATPVANIISVETPTTAPSSKKKEKKEQLSKAQKRKLADKTDHKGELPRGWNWVDVVKHLSKTGSKDDE | soluble
MGSDKIHHHHHHMITTARPNVLWIMADQLRFDYLSCYGHPHLHTPHIDALAARGVRFTNAYVQSPVCGPSRMSAYTGRYVRSHGSTWNGMPLRVGEPTLGDHLREAGARAVLVGKTHMVADAEGMAWLGIDPKSEIGVSRSECGFEPFERDDGLHPDSPRQRWSAYDDYLVSHGYDSQNPWEDFANSGVDADGELLSAWLLKNSRLAANVPEEHSETAYMTDRAMAFMEEAEADGRPWMCHLSYIKPHWPYIVPAPYHDMYDESHIIDPVRSEAERDNAHPLVGAYQNSRVCRTFSRDQVRDHVIPAYMGLIKQLDDNLGRLFAWMDARGLSENTIIAFTSDHGDYMGDHWMGEKDFYHEMAVKVPMIIADPRPQADGTRGHVADDLVEMIDLAPTFMTALGAAPKPHIIEGRDLTPLLHGTDGFARQYVISEYDYHWSEMAAALQVPQEDAHTTMIFDGRWKYIRCERFDPVLFDLETDPQELVDLGTSPAHAEIRALMDAALLKWATQHHTRITATAAVLAGQKIAAETGILIGFWDEAEFEAATGFPFTDLTPQGPPK | not soluble
MTRAQPEPVQVVKQRRDAALRALVSGVPYITYLGIQFDRRGDELTAVLPFDEKLIGNPMLPAIHGGVTAAFLEVASIIELSWSVLWHEMEQGRLDPDQIEARLPRLPKTIDFTVDYLRSGLPRDAYARARVNRSGRRYASVHVEAWQDNRLRPFAQATGHFLMPARNDLEHHHHHH | soluble
MGSDKIHHHHHHMKQPLAHRMRPTNIQEIIGQQHLVGEGKILWRMVQANHFQSMILYGPPGTGKTSIASAIAGSTGTPFRLLNAVTHNKKDMEVVVQEAKMHRHLVLILDEVHRLDKAKQDFLLPHLESGLLTLIGATTSNPFHAINSAIRSRCQIFELHALTEDDLLIGLKRALEDKEKGLGEYDVTVTPEALHHFANASGGDMRSAYNALELAVLSSFTTDDKAAEITLEIAEECLQKKSFVHDKGGDAHYDVLSAFQKSVRGSDVNAALHYLARLIEAGDLQSIGRRLLIMAYEDIGLASPQAGPRTLAAIESAERVGFPEARIPLANAVIELCLSPKSNSAYKALDAALHDLRNGQTGDIPSHLKDSHYKGAEALGRGIGYLYPHDHPNGWVQQQYLPDKIKNKQYYKPKMTGKFEQALSTVYERLQSSNKTKNKG | not soluble
MGMPEEALKIYQELLEIEKELGNEREIALTLANIAVVKDELGEADEAIKLMSEAKDIFEKINDTKNYHIALIDLAHFYYELGEYEKAMQIIEEVLRNPLDDEIEVHGRLVESEIHSALENYKKAALSLRNALLRSGDDEYLFETAFEAVLEFIEELYNEEKLEHHHHHH | not soluble
MGSSHHHHHHSSGLVPRGSHMAHQDALPRLPVPPLQQSLDYYLKALQPIVSEEEWAHTKQLVDEFQTSGGVGERLQKGLERRAKKMENWLSEWWLKTAYLQFRQPVVIYSSPGVILPKQDFVDLQGQLRFAAKLIEGVLDFKSMIDNETLPVEFLGGQPLCMNQYYQILSSCRVPGPKQDSVVNFLKSKRPPTHITVVHNYQFFELDVYHSDGTPLTSDQIFVQLEKIWNSSLQSNKEPVGILTSNHRNTWAKAYNNLIKDKVNRESVNSIQKSIFTVCLDKQVPRVSDDVYRNHVAGQMLHGGGSKFNSGNRWFDKTLQFIVAEDGSCGMVYEHAAAEGPPIVALVDHVMEYTKKPELVRSPMVPLPMPKKLRFNITPEIKNDIEKAKQNLSIMIQDLDIMMLTFHHFGKDFPKSEKLSPDAFIQVALQLAYYRIYGQACATYESASLRMFHLGRTDTIRSASIDSLAFVKGMGDSTVPEQQKVELLRKAVQAHRAYTDRAIRGEAFDRHLLGLKLQAIEDLVSMPDIFMDTSYAIAMHFNLSTSQVPAKTDCVMAFGPVVPDGYGICYNPMEAHINFSVSAYNSCAETNAARMAHYLEKALLDMRTLLQNHPRAKL | soluble
MESAKSIIGGHQNVILMRHGDRLDNFEPLWTSTAARPWDPPLAQDGKDRAFRTGQRIRSQLGVPIHRVFVSPFLRCIQTASEVVAALSAVDFDPIAMSSKDVLSIDNTKIKVAIEFGLSEIPHPIFIKSEVAPKDGKFDFKISDLEAMFPEGTVDSNVDMVYKEVPEWGESAQAFEDRYYKTVKILAEKYPSENLLLVTHWGAVSVAFYNYFKDATKYVVDYCGSVEMRRQILNGDGFGKFEVVTSHGVSYKYTKIPVHDHVVVSRQSPL | soluble
MLFDMDGVLFDSMPYHAEAWHKTMKAHGLNLSREEAYMHEGRTGAGTINIVCQRQLGRDATQEEIESIYLEKSIEFNKHPQAERMPGAWELLQKIKAEGIIPTVVTGSGQASLLDRLEHNFPGMFRQELMVTAFDVKYGKPNPEPYLMALEKGGLKPNEAIVIENAPLGVEAGHKAGIFTIAVNTGPLNGEILLNAGADLLFPSMQALCESWEKLVRLLH | not soluble
